Test results taken from patent publication US20100202970A1.

Tests used:
[1] = target: PKA substrate (modified Kemptide containing a consensus phosphorylation site for Protein Kinase A) C-terminally tagged with the yellow fluorescent protein YPet; assay: cell-based or functional assay
[2] = target: PKC substrate C-terminally tagged with the yellow fluorescent protein YPet; assay: cell-based or functional assay

increase in yellow/cyan emission ratio (intermolecular FRET) after Forskolin in 1205-Lu cells co-expressing both constructs [1]: 60%
increase in yellow/cyan emission ratio (intermolecular FRET) after PMA in 1205-Lu cells co-expressing both constructs [2]: 30%
Substance: FHA1 (forkhead associated domain 1 of the yeast protein Rad53) tagged at its N-terminus with the cyan fluorescent protein Cerulean (from UniProt P22216 22-162)
